Target: T1, human parechovirus 3 (HPeV3) isolate A308/99 virion (Human parechovirus 3, isolate A308/99, strain)
T1 chain 1: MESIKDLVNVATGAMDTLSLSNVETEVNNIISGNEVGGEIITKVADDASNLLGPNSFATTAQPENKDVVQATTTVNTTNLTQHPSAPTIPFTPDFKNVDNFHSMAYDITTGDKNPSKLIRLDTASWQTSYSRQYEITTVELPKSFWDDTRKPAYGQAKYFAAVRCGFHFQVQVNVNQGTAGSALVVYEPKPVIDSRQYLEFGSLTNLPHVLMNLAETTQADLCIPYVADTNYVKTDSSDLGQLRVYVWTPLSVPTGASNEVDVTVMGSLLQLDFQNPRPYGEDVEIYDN
T1 chain 2: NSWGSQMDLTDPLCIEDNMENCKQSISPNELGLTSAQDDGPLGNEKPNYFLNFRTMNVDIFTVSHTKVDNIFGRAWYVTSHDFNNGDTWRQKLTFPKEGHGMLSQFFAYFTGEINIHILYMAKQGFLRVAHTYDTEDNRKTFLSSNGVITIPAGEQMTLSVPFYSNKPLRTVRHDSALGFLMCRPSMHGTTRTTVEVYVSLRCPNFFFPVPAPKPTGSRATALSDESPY
T1 chain 3: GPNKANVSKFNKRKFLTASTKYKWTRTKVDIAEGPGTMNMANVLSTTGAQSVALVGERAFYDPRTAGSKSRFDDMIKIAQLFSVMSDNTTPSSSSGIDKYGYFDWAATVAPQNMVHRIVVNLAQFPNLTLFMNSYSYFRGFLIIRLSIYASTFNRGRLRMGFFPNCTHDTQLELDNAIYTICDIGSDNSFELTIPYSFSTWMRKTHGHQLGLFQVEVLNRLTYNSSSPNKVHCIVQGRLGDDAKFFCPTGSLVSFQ
Assay: cryo-EM structure

B1: Fab fragment of human monoclonal antibody AT12-015 (Fab, V domains shown)
VH: EVQLLESGGGLVQPGGSLRLSCAASGFTFSSYAMSWVRQAPGKGLEWVSAISGGGDSRYYADSVKGRFTISRDNSKNTLYLQMNSLGAEDTALYYCAKRLGRVAEYYFDYWGQGTLVTVSP
VL: DIQMTQSPSTLSASVGDRVTITCRTSQSISNWLAWYQQKPGKAPKLLIYQASTLENGVPSRFTGSGSGTEFSLTISSLQPDDFATYYCQQYNNYMALTFGGGTKVEIK
  stoichiometry N: 60 Fab per virion
